According to paper PMC7893823, “Structural basis of nucleosomal histone H4 lysine 20 methylation by SET8 methyltransferase” (Life Science Alliance, 2021):

Biological target: histone H4 (human, UniProt P62805 1-103)
Test: cryo-EM structure; NCP or NCP^CENP-A (0.52 μM) mixed with SET8 (1.0 or 0.94 μM) at 25°C with 0.10 mM S-adenosyl-L-homocysteine, 50 mM NaCl, 50 mM KCl; complex purified by GraFix (sucrose gradient with paraformaldehyde cross-linking)
Conditions: both partners purified

B1: human SET8 (KMT5A Isoform 2) (enzyme)
chain: MARGRKMSKPRAVEAAAAAAAVAATAPGPEMVERRGPGRPRTDGENVFTGQSKIYSYMSPNKCSGMRFPLQEENSVTHHEVKCQGKPLAGIYRKREEKRNAGNAVRSAMKSEEQKIKDARKGPLVPFPNQKSEAAEPPKTPPSSCDSTNAAIAKQALKKPIKGKQAPRKKAQGKTQQNRKLTDFYPVRRSSRKSKAELQSEERKRIDELIESGKEEGMKIDLIDGKGRGVIATKQFSRGDFVVEYHGDLIEITDAKKREALYAQDPSTGCYMYYFQYLSKTYCVDATRETNRLGRLINHSKCGNCQTKLHDIDGVPHLILIASRDIAAGEELLYDYGDRSKASIEAHPWLKH
notes: SET8 (KMT5A), human, isoform 2, UniProt Q9NQR1-2; residue numbers (Arg188, Arg192) count on isoform 2; His6 tag removed with PreScission protease (modified pET15b vector); also called PR-SET7; SETD8; source: E. coli BL21(DE3), purified (Ni-NTA, Mono S, Superdex 200)
binding result: binds
